In PMC4914982:
Values belong to the substance of their own block, whether it stands above or below them.

Tests used:
Experiment in all cases: SEC + native gel or EMSA; SEC: Superdex S200 10/300 GL, PBS pH 7.4, approximately 500 ul of 1 mg/ml protein injected, UV 280 nm; semi-native PAGE: 12% SDS-PAGE, Laemmli buffer with 0.2% SDS and 12.5 mM EDTA, no beta-mercaptoethanol, samples not heated; monomer to dimer
sfGFP-Q204H = molecular target: sfGFP-Q204H
sfGFP-N149Y = molecular target: sfGFP-N149Y
sfGFP-N149Y/Q204H/I188V = molecular target: sfGFP-N149Y/Q204H/I188V
sfGFP-N149Y/Q204H = molecular target: sfGFP-N149Y/Q204H
[1] = molecular target: sfGFP-N149Y/Q204H/I167T/I188V
sfGFP-N149Y/Q204H/I167T = molecular target: sfGFP-N149Y/Q204H/I167T

stoichiometry N (sfGFP-Q204H): 2
Substance: sfGFP-Q204H

stoichiometry N (sfGFP-N149Y): 2
Substance: sfGFP-N149Y

stoichiometry N (sfGFP-N149Y/Q204H/I188V): 2
Substance: sfGFP-N149Y/Q204H/I188V

stoichiometry N (sfGFP-N149Y/Q204H): 2
Substance: sfGFP-N149Y/Q204H

stoichiometry N [1]: 2
Substance: sfGFP-N149Y/Q204H/I167T/I188V

stoichiometry N (sfGFP-N149Y/Q204H/I167T): 2
Substance: sfGFP-N149Y/Q204H/I167T
